According to PMC6340165, “A GntR Family Transcription Factor in Streptococcus mutans Regulates Biofilm Formation and Expression of Multiple Sugar Transporter Genes”:

T1: StsR (GntR family regulator) (Streptococcus mutans UA159) (UniProt Q8DTX4)
T1 sequence: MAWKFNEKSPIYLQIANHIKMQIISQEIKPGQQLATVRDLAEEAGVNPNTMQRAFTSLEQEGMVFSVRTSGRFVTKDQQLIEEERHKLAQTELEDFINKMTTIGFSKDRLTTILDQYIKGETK

B1: stsR p3 (dsDNA)
DNA 1: CCACTTGACAATATTTTACTATAATTGTATTATATATATAACAC
DNA 2: GTGTTATATATATAATACAATTATAGTAAAATATTGTCAAGTGG
B2: stsR p3mut (dsDNA)
DNA 1: CCACTTGACAATATTTTACTCCACCTGTCCTCCATATATAACAC
DNA 2: GTGTTATATATGGAGGACAGGTGGAGTAAAATATTGTCAAGTGG

Tests used:
[1] = target: T1, StsR (GntR family regulator) (Streptococcus mutans UA159); assay: EMSA; settings: 50 mM Tris/HCl, 10 mM NaCl, 0.5 M Mg acetate (so in the source), 0.1 mM EDTA, 5% glycerol, 30 min, 10 uL; 4% native PAGE in 0.5x TBS; pH and binding temperature not …
[2] = target: T1, StsR (GntR family regulator) (Streptococcus mutans UA159); assay: DNase I footprinting; settings: 50 mM Tris/HCl, 10 mM NaCl, 0.5 M Mg acetate (so in the source), 0.1 mM EDTA, 5% glycerol, 30 min, 10 uL; 4% native PAGE in 0.5x TBS; pH and binding temperature not …
[3] = target: StsR (GntR family regulator) (Streptococcus mutans UA159, UniProt Q8DTX4 1-123); assay: EMSA; 10-40 pmol StsR; 50 mM Tris/HCl, 10 mM NaCl, 0.5 M Mg acetate (so in the source), 0.1 mM EDTA, 5% glycerol, 30 min, 10 uL; 4% native PAGE in 0.5x TBS; pH and binding temperature not stated (DNase I digestion at 28 C); settings: protein: recombinant; tags: His6 (pET28a); chain copies: 2; label: FITC; annealed with reverse complement

| Molecule | binding [1] | other results |
| --- | --- | --- |
| AAGTGTCTCCTTCTACTTTTTAATAAAATAGTATTGTTTACTCAAATAATCACCTTGCGGCATATCAATGGTCAATCCCGCATACATTAACTCCGCA (double strand) [multiple sugar-binding ABC transporter promoter] | binds | – |
| CAAATTTTGGCAAAACTTTTGTGCCAAAATTTGAGTTTTATTAGAAAATGAAAAATGTTACAGTAGTTTTAGAATAAAAAGGAGGGGATTTCTGATGGAACGAAAATCTTCATTGAAGGTTCGGGTACA (double strand) [mannitol-specific PTS promoter] | binds | – |
| CAGGGATATGAAAATGACAAATGACACTGCAAAAGCGTTTTCAAAAAATGTAAAATAAAAATGAAATAAAAAAGAAAGTAGGGTGTATTC (double strand) [mannose-specific PTS promoter] | binds | – |
| CTTATAAAGTAATTTAATATCTTGATGAAATTTTAAAAAAACTTGACATTTTTCGCAAACGATTGCATAATATTATTGTAACAAAAATTACAAAGAAATTTCAGGAGGAAATCGCT (double strand) [maltose ABC transporter promoter] | binds | – |
| CTTCTGTCTCCTTAAGATCTACTTACTTTTATTATACTACAAATCCTTAAAATCCTCTTACTCTTTCATTTAATTCTACTAAATCTCATCAGTCTAAATTTACCACTTGACAATATTTTACTATAATTGTATTATATATATAACACAATTATACACTGCACTTTAGAAAGGAGAAAAAATGGCT (double strand) [stsR p2 FITC] | – | binding [2]: binds |
| CTTCTGTCTCCTTAAGATCTACTTACTTTTATTATACTACAAATCCTTAAAATCCTCTTACTCTTTCATTTAATTCTACTAAATCTCATCAGTCTAAATTTACCACTTGACAATATTTTACTATAATTGTATTATATATATAACACAATTATACACTGCACTTTAGAAAGGAGAAAAAATGGCT (double strand) [stsR p2] | binds | – |
| B1 | – | binding result [3]: binds |
| B2 | – | binding result [3]: no binding |
